Positions count from the first letter of the chain named.

T1: His-RppH co-expressed with DapF from pDuet-RD (E. coli, UniProt P0A776 1-176)
T1 construct: RppH (NudH), RNA pyrophosphohydrolase, E. coli; source: E. coli ER2566 harboring pDuet-RD (from the pET-duet vector), in crude extract
T1 sequence (looked up): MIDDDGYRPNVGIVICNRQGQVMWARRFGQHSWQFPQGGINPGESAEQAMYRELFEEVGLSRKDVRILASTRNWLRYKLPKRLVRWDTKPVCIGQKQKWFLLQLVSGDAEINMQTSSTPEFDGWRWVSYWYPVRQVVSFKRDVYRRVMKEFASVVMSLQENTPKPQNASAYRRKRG

T2: His6-RppH (6His-tagged form of RppH, RNA pyrophosphohydrolase) (E. coli, UniProt P0A776 1-176)
T2 construct: RppH (NudH), RNA pyrophosphohydrolase, E. coli; rppH gene amplified from MG1655 genomic DNA with primers at the ATG start codon and 20 bp downstream of the TAA stop codon; also called His-RppH; His-tagged RppH
T2 sequence (looked up): T1 sequence (looked up)

T3: DapF(C73&217A) (E. coli, UniProt P0A6K1 1-274, C73&217A | C73&217A)
T3 construct: DapF, diaminopimelate epimerase, E. coli; the two catalytic cysteines C73 and C217 substituted to alanine; The methods list His-DapF(C73&217A) among the purified proteins; results and legends call it DapF(C73&217A); also called His-DapF(C73&217A); mutant DapF
T3 sequence (looked up): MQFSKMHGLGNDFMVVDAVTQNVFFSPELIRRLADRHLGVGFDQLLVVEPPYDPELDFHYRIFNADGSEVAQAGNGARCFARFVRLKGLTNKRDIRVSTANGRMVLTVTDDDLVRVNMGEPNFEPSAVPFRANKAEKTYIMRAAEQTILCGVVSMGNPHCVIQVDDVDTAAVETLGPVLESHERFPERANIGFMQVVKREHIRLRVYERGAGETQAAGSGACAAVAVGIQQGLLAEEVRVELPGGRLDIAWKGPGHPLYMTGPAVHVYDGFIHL

B1: DapF co-expressed with His-RppH from pDuet-RD (enzyme, E. coli, UniProt P0A6K1 1-274, looked up)
chain: T3 sequence (looked up) with A73C, A217C
notes: DapF, diaminopimelate epimerase, E. coli; source: E. coli ER2566 harboring pDuet-RD (from the pET-duet vector), in crude extract
B2: DapF, diaminopimelate (DAP) epimerase, purified (enzyme, E. coli, UniProt P0A6K1 1-274, looked up)
chain: T3 sequence (looked up) with A73C, A217C
notes: DapF, diaminopimelate epimerase, E. coli; The text sets 'purified DapF' (untagged) against His-DapF in the pull-downs; also called purified DapF; untagged DapF; source: purified
B3: RppH, RNA pyrophosphohydrolase, purified (enzyme, E. coli, UniProt P0A776 1-176, looked up)
chain: T1 sequence (looked up)
notes: RppH (NudH), RNA pyrophosphohydrolase, E. coli; Named only 'RppH' in gel filtration, SPR and the activity assays; The methods describe only the purification of His-RppH, so this may be the same protein as m1; also called purified RppH; NudH; source: purified

For series [1], the target named is T1, His-RppH co-expressed with DapF from …. The series is described as follows: pull-down; DapF and His-RppH co-expressed from pDuet-RD in E. coli ER2566; crude extract loaded onto a TALON metal affinity column; SDS-PAGE. The conditions noted are these: partners not purified.
The target in series [2] is T2, His6-RppH (6His-tagged form of RppH, …). The series is described as follows: pull-down; purified DapF mixed with varying amounts of His-RppH or the control protein His-enzyme IIA^Ntr on the metal affinity resin; band intensities on gel. The conditions noted are these: both partners purified.
Series [3] addresses B3. The series is described as follows: SEC; Superose 12 10/300 GL, 50 mM Tris-HCl pH 8.0, 100 mM NaCl, room temperature, 0.5 ml/min; 50 μg RppH, 400 μg DapF (or 100 μg DapF(C73&217A)) or both in 250 μl, incubated 10 min on ice; fractions on SDS-PAGE. The conditions noted are these: both partners purified.
Series [4] concerns the molecule itself. Described as above.
In series [5] the target is B2. The series can be described thus: SPR; BIAcore 3000; RppH amine-coupled to a CM5 chip (0.7 ng/mm^2); DapF at 20, 50 and 70 μg/ml flowed at 10 μl/min; 10 mM HEPES pH 7.2, 150 mM NaCl, 10 mM KCl, 1 mM MgCl2, 0.5 mM EDTA; fit assumes a dimer–dimer interaction. To be noted: both partners purified.
Series [6] concerns the target T3, DapF(C73&217A). The series can be described thus: SEC; Superose 12 10/300 GL, 50 mM Tris-HCl pH 8.0, 100 mM NaCl, room temperature, 0.5 ml/min; 50 μg RppH, 400 μg DapF (or 100 μg DapF(C73&217A)) or both in 250 μl, incubated 10 min on ice; fractions on SDS-PAGE. To be noted: both partners purified.

For the molecule B1, in series [1], the “stoichiometry N” value was 1 DapF:RppH.
As for B2, the “stoichiometry N” value in series [2] was 1 DapF:RppH; in series [3], 1 DapF:RppH (2:2); in series [4] it was 2.
Regarding B3, in series [5], the dissociation constant Kd is approximately 5.2 nM. For the same molecule, the binding result in series [6] is listed as “binds”.

Source of the values: publication PMC4227774, “RppH-dependent pyrophosphohydrolysis of mRNAs is regulated by direct interaction with DapF in Escherichia coli” (Nucleic Acids Research, 2014).
